The text below walks through data of patent US20170319674A1.

This assay has as its target NY-ESO-1 αβTCR with murinized domain 3 in β-chain, paired with the human TCRα-chain (human). In words: cell-based or functional assay.

In turn, H57-597 (antibody) displayed a percentage of lysis (standard chromium release assay) of 4 fold.
